Results from the supplement of paper PMC10567573.

B1: SNAP91 (parent)
chain: FAQPMMRPPFGAAAVPGTQLSPSP

Variants of: B1
Assay: protein stability index of a GFP-peptide fusion (GPS, HEK-293T) (PSI 1-6); higher = more stable
Conditions: c terminus: a fixed tail appended
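Also: lentivirally expressed fusions sorted by FACS into six bins by GFP to DsRed ratio, PSI derived from sequencing read proportions per bin multiplied by bin number.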

Protein stability index of substitutions, site by site:
A2: P 3.72, Q 3.33, R 3.85, S 3.81, T 3.09, V 1.71, W 2.45, Y 3.56
Q3: A 3.3, C 2.58, D 2.12, E 2.17, F 3.04, G 2.8, H 2.86, I 2.55, K 3.32, L 3.01, M 2.93, N 2.98, R 3.42, S 3.61, T 3.56, V 3.45, W 2.32, Y 1.82
P4: A 2.05, C 2.48, D 2.7, E 2.77, F 1.44, G 2.01, H 2.75, I 1.96, K 1.97, L 1.65, M 1.61, N 2.36, Q 2.02, R 2.54, S 2.26, T 2.53, V 2.33, W 1.83, Y 1.83
M5: A 3.49, C 2.68, D 3.52, E 3.61, F 2.54, G 2.77, H 2.86, I 2.59, K 2.61, L 3.4, N 3.22, P 4.01, Q 3.48, R 4.15, S 3.31, T 3.07, V 3.01, W 1.96, Y 2.64
M6: A 2.89, C 2.76, D 3.46, E 3.6, F 3.14, G 3.01, H 4.01, I 3.77, K 3.65, L 3.13, N 3.19, P 3.62, Q 3.9, R 3.1, S 3.1, T 3.68, V 3.87, W 2.61, Y 2.88
R7: A 3.55, C 2.3, D 3.13, E 3.22, F 1.55, G 2.23, H 2.81, I 2.4, K 3.34, L 2.38, M 2.42, N 2.92, P 2.87, Q 2.62, S 3.32, T 2.67, V 2.49, W 1.7, Y 1.89
P8: A 3.82, C 2.39, D 3.5, E 3.75, F 2.97, G 2.97, H 3.16, I 2.49, K 2.97, L 2.87, M 3.01, N 2.98, Q 3.36, R 3.03, S 2.96, T 3.02, V 3.11, W 2.64, Y 2.79
P9: A 3.51, C 3.06, D 4.04, E 3.94, F 1.63, G 3.45, H 3.52, I 2.57, K 2.71, L 1.91, M 3.1, N 3.14, Q 3.91, R 3.77, S 3.75, T 3.59, V 3.26, W 1.91, Y 2.34
F10: A 3.98, C 2.95, D 4.52, E 3.99, G 4.2, H 3.58, I 3.99, K 3.83, L 4.12, M 4.12, N 4.14, P 4.31, Q 4.33, R 3.86, S 3.81, T 4.14, V 4.7, W 2.1, Y 2.83
G11: A 3.74, C 2.96, D 3.7, E 3.43, F 2.86, H 2.91, I 2.73, K 3.55, L 3.04, M 3.29, N 3.67, P 3.98, Q 4.35, R 4.01, S 4.04, T 3.44, V 3.35, W 1.88, Y 2.91
A12: C 2.46, D 3.82, E 3.39, F 2.83, G 3.5, H 2.96, I 2.58, K 3.16, L 2.42, M 3.03, N 3.54, P 2.7, Q 3.62, R 3.33, S 2.91, T 2.91, V 2.55, W 2.77, Y 2.53
A13: C 2.39, D 3.38, E 3.24, F 3.13, G 3.44, H 3.13, I 2.54, K 3.13, L 2.63, M 2.79, N 3.46, P 3.76, Q 3.32, R 3.65, S 3.25, T 3.36, V 2.73, W 1.62, Y 2.75
A14: C 2.81, D 2.79, E 3.01, F 2.65, G 2.8, H 2.99, I 2.82, K 3.21, L 2.78, M 3.03, N 3.17, P 3.08, Q 3.25, R 3.31, S 2.87, T 2.45, V 2.61, W 1.81, Y 3.04
V15: A 3.54, C 3.21, D 2.73, E 2.98, F 2.78, G 2.96, H 3.28, I 2.82, K 2.92, L 3.08, M 3.01, N 3.27, Q 3.42, R 3.31, S 3.28, T 3.5, W 2.52, Y 2.83
P16: A 3.29, C 2.77, D 2.99, E 2.38, F 2.53, G 2.81, H 2.71, I 2.22, K 3.25, L 2.74, M 2.69, N 3.2, Q 3.19, R 3.36, S 3.02, T 3.37, V 3.33, W 1.78, Y 2.15
G17: A 3.11, C 2.71, D 3.04, E 2.71, F 2.69, H 3.22, I 2.88, K 3.17, L 3.46, M 2.84, N 3.44, Q 3.48, R 3.89, S 2.81, T 3.24, V 2.85, W 2.49, Y 2.74
T18: A 3.1, C 2.92, D 2.6, E 2.6, F 2.89, G 2.72, H 2.82, I 2.84, K 2.75, L 2.95, M 2.95, N 2.87, P 3.14, Q 3.15, R 3.41, S 3.02, V 2.76, W 2.29, Y 2.58
Q19: A 2.98, C 2.57, D 3.22, E 2.72, F 2.64, G 2.96, H 3.08, I 2.87, K 2.41, L 2.5, M 2.89, N 3.17, R 3, S 2.84, T 2.87, V 2.96, W 2.4, Y 2.69
L20: A 3.28, C 3.7, D 2.98, E 2.94, F 2.71, G 3.6, H 3.43
